Entries after “also recorded” stand apart in the source; their conditions may differ. One block for each compound: values may come before it. No end group written: not given here.
Assays:
MR = biological target: T1, MR (Homo sapiens, UniProt P08235); assay: IC50 (µM)
T1 construct: receptor expression vector (pRS vector) encoding full-length GR and MR respectively (ATCC); host or cells: Cos-7
Description: Table printed on a drawing sheet, FIG. 3D
Head of the field: IC50 (µM)
The patent's description of the figure: FIG. 3.
First copying reader's note: The head of the sequence column numbers the residue positions relative to the first leucine of the LXXLL motif; the last two rows are protein fragments given as residue ranges.

[1] = tested on: MR S810 mutated to leucine or methionine; conditions: Geller et al., 2000; cited from earlier work
[2] = biological target: T2, purified MR LBD/corticosterone complex (Homo sapiens, UniProt P08235, C808S); assay: AlphaScreen binding of biotinylated coactivator/corepressor peptides (FIG. 1B); conditions: corticosterone-bound MR LBD
T2 construct: made in house; host or cells: E. coli BL21DE3 (pET24a)
T2 sequence (P08235 727-984 C808S): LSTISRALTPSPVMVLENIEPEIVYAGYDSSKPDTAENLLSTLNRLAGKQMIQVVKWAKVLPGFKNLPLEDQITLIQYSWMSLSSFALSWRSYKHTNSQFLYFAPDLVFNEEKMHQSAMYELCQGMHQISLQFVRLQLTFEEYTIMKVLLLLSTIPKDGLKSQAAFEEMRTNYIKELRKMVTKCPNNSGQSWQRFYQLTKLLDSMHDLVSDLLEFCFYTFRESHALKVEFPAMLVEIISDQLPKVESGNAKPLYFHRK
Method: (B) Binding of various peptides containing coactivator or corepressor motifs to the purified MR LBD/corticosterone complex as measured by AlphaScreen assays. The background reading with the MR LBD alone is less than 200.
(§1) The binding of various peptide motifs to MR was determined by AlphaScreen assays using a hexahistidine detection kit from Perkin-Elmer. MR proteins were prepared as 6×His-GST fusion proteins for the assays.
The biotinylated peptides that were used in FIG. 1B are listed below in Table 1: […]

MR LBD = biological target: T3, MR LBD (Homo sapiens, UniProt P08235, C808S); assay: Peptide profiling: unlabeled peptides compete off SRC2-3 binding to MR (FIG. 1C); conditions: unlabeled peptide 500 nM; 20 nM corticosterone or aldosterone
T3 construct: made in house; host or cells: E. coli BL21DE3 (pET24a)
T3 sequence (P08235 727-984 C808S): T2 sequence (P08235 727-984 C808S)
Method: The cofactors that contain a pair of LXXLL motifs with strong binding affinity to MR are boxed. All peptides have identical length of 15 residues except for SRC1-4 motif, which terminates at position +7 relative to the first leucines (L+1) in the LXXLL motif, and for the AR peptides and the corepressor motifs, which are longer than the coactivator motifs. Sequences of peptides are listed in experimental procedures.
as §1
The unlabeled peptides that were used in FIG. 1C are listed below in Table 2:
MR is the least studied member among the classical steroid hormone receptors and its physiological coactivators have not been clearly documented. To gain insights into which coactivator is physiologically relevant to MR, the inventors performed peptide profiling experiments using a panel of 38 unlabeled peptides to compete off the binding of the third LXXLL motif of SRC2 (also known as TIF2/GRIP1) to MR. […] The strong binding of the SRC1-4 motif and the PGC1 motifs is consistent with previous studies of the binding of LXXLL motifs to oxosteroid receptors (Hultman et al., 2005; Wu et al., 2004).

T1 sequence (P08235 whole entry, looked up): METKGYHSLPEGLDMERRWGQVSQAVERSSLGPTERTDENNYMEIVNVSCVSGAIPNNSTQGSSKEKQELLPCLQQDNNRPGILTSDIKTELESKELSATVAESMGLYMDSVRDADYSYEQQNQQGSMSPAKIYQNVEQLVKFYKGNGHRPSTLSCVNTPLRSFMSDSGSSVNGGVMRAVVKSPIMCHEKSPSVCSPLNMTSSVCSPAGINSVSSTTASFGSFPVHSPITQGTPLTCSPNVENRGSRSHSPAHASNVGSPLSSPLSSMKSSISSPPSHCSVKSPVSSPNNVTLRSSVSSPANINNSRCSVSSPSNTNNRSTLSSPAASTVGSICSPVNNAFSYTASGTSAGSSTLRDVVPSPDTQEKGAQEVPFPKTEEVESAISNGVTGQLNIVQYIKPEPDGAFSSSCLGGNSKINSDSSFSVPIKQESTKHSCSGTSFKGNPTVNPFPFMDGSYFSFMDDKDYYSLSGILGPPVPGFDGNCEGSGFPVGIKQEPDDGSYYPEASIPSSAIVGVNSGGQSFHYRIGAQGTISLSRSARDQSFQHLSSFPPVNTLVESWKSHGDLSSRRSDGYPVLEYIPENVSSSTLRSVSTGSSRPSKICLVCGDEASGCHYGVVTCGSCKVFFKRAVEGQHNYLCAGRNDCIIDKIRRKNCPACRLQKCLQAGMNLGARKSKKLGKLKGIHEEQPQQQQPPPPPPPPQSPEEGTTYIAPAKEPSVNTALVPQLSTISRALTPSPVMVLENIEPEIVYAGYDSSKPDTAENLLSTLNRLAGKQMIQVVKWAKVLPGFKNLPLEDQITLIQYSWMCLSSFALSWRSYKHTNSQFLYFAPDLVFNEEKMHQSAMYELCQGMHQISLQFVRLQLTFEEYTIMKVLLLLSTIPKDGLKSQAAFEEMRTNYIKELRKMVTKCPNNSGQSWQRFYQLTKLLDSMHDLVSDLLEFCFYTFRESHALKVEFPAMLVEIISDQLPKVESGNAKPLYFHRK

- interaction with purified MR LBD [2]: strongly
Compound: AEEPSLLKKLLLAPA [PGC1]

- interaction with purified MR LBD [2]: weakly
Compound: GHGEDFSKVSQNPILTSLLQITGN (listed as Homo sapiens) [TRAP220]

- interaction with purified MR LBD [2]: failed to interact
Compound: GHSFADPASNLGLEDIIRKALMGSF [NCOR-2]

Continued, compound first:

Compound: QEKHRILHKLLQNGN [SRC3-2]
- IC50 (MR): 4.6 µM

Compound: CC(=O)[C@H]1CC[C@H]2[C@@H]3CCC4=CC(=O)CC[C@]4(C)[C@H]3CC[C@]12C [progesterone]
- activation of S810-mutated MR [1]: activated efficiently; also recorded: allows the receptor to respond

Compound: C[C@]12CCC(=O)C=C1CC[C@@H]1[C@@H]2C(=O)C[C@@]2(C)[C@H]1CC[C@]2(O)C(=O)CO [cortisone]
- activation of S810-mutated MR [1]: activated efficiently

Compound: WAEFSILRELLAQDV (listed as Homo sapiens) [PGC1β-2, 35]
- inhibition of SRC2-3 binding to MR (MR LBD): most potent competitors

Compound: SGNLVPDAASKHKQLSELLRGGSG (listed as Homo sapiens) [CBP]
- interaction with purified MR LBD [2]: weakly

Compound: PRQGSILYSLLTSSK (listed as Homo sapiens) [DAX1-3, 18]
- inhibition of SRC2-3 binding to MR (MR LBD): most potent competitors

Compound: KENNALLRYLLDRDD [SRC3-3]
- IC50 (MR): 1.4 µM

From US20070111265A1, “Ligands for mineralocorticoid receptor (MR) and methods for screening for or designing MR ligands” (Van Andel Research Institute, priority 2005, published 2007)
